Assays:
Type in all cases: cell-based
[1] = target: T1, human chemokine receptor CCR2 (Homo sapiens, UniProt P41597); experiment: Cellular NanoBiT β-arrestin recruitment assay; settings: n = 1; read-out: EC50, β-arrestin-2 recruitment, CCR2 activation
T1 construct: expressed in transfected cells; host or cells: HEK293T, transient
Method: (PerkinElmer, Groningen, NL).
(§1) Cellular NanoBiT β-arrestin recruitment assays: Chemokine-induced β-arrestin-2 recruitment to chemokine receptors CCR1 and CCR2 was monitored using a nanoluciferase complementation -based assay (NanoBiT, Promega). 17-19 5 x 10^6 HEK293T cells were plated in 10 cm dishes and cultured for 24 h before transfection with vectors encoding for the human chemokine receptor CCR1 or CCR2 C-terminally fused with SmBiT and β-arrestin 2 N-terminally fused with LgBiT. 24 h after transfection cells were harvested, distributed into white 96-well plates (5 × 10^4 cells per well) and incubated for 1 h at 37 °C with compound 23 at concentrations ranging from 10 nM to 10 µM. The endogenous chemokine ligand CCL5 (3 nM, for CCR1) or CCL2 (10 nM, for CCR2) was then added, and luminescence generated upon nanoluciferase complementation in the presence of coelenterazine H was measured with a Mithras LB940 luminometer (Berthold Technologies) for 20 min. […]
(§2) Finally, the top 5% of the identified hits were subsequently docked to a homology model of CCR1 (vide infra). After visual examination of the obtained binding modes 24 hit compounds were identified for further investigation .
(§3) Molecular docking: For the docking studies in the course of our virtual screening campaign, the CCR1 protein was […]
(§4) 27, 28 CCR1 structure was optimized using the Quickprep and structure preparation wizard in MOE 24 using CHARMM27 forcefield. The protein was saved in mol2 format and loaded in GOLD.25, 26 The amino acids defining the IABS were listed in a text file to define the docking cavity. 50 GA runs were performed for docking CCR2-RA-[R] (4-[R]) and SN_12 (43), with the generated solutions clustered based on their RMSD with the threshold set to 0.75 Å using the complete linkage method. Docking runs were performed using ChemScore. […]

[2] = target: T2, human chemokine receptor CCR1 (Homo sapiens, UniProt P32246); experiment: Cellular NanoBiT β-arrestin recruitment assay; settings: n = 3; read-out: EC50, β-arrestin-2 recruitment, CCR1 activation
T2 construct: expressed in transfected cells; host or cells: HEK293T, transient
T2 sequence (P32246 1-355): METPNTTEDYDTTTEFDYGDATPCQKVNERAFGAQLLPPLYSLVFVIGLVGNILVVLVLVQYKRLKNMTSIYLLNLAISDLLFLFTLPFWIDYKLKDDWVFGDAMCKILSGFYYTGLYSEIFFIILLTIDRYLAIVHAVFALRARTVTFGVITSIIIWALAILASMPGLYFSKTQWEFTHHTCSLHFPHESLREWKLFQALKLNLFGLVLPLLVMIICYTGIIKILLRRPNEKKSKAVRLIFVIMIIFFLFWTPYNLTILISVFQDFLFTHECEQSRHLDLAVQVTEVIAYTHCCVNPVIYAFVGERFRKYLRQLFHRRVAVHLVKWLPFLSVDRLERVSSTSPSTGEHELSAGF
Method: as §1, with “CCR1” for “Cellular NanoBiT β-arrestin recruitment assays: Chemokine-induced β-arrestin-2 recruitment to chemokine receptors CCR1”
as §2, §3
27, 28 CCR1 structure was optimized using the Quickprep and structure preparation wizard in MOE 24 using CHARMM27 forcefield. The protein was saved in mol2 format and loaded in GOLD.25, 26 The amino acids defining the IABS were listed in a text file to define the docking cavity. 50 GA runs were performed for docking CCR2-RA-[R] (4-[R]) and SN_12 (43), with the generated solutions clustered based on their RMSD with the threshold set to 0.75 Å using the complete linkage method. Docking runs were performed using ChemScore. Flexibility of amino acids Lys63ICL1, Arg1313.50, Leu2406.36 and Arg3078.49 was taken in consideration in the docking runs, with conformational sampling of their side chains being done by the rotamer libraries implemented in GOLD.25, 26 For the docking studies with our ligand-linker conjugates (Figure S1), molecular ligand structures were geometry optimized as neutral molecules by means of Avogadro (Version 1.2.0)29 using the Universal Force Field (UFF) and the Steepest Decent Algorithm until convergence (ΔE = 0).
CCR113 was used for docking. The compounds were docked by means of AutoDock Vina 1.1.2.30, 31 An exhaustiveness value of 8 and a search space of 22 x 22 x 22 Å³ was applied around the unliganded intracellular allosteric binding site of CCR1. Twenty docking poses were generated for each ligand and inspected manually and according to the docking score.

[3] = target: T2, human chemokine receptor CCR1; experiment: Cellular NanoBiT miniGi recruitment assay; settings: n = 3; read-out: EC50, miniGi recruitment, CCR1 activation
Method: Technologies) for 20 min.
Cellular NanoBiT miniGi recruitment assay s: Chemokine-induced Gi recruitment to the chemokine receptor CCR1 was monitored using a nanoluciferase complementation -based assay (NanoBiT, Promega). 20 5 x 10^6 HEK293T cells were plated in 10 cm dishes and cultured for 24 h before transfection with vectors encoding for the human chemokine receptor CCR1 C-terminally fused with SmBiT and miniGi (mG, engineered GTPase domain of Gα subunit) N-terminally fused with LgBiT. 24 h after transfection cells were harvested, distributed into white 96 -well plates (5 × 10^4 cells per well) and incubated for 1 h at 37 °C with compound 23 at concentrations ranging from 10 nM to 100 µM. The endogenous chemokine ligand CCL5 (3 nM, for CCR1) was then added, and luminescence generated upon nanoluciferase complementation in the presence of coelenterazine H was measured with a Mithras LB940 luminometer (Berthold Technologies) for 20 min. […]
as §2, §3, §4

T1 sequence (P41597 whole entry): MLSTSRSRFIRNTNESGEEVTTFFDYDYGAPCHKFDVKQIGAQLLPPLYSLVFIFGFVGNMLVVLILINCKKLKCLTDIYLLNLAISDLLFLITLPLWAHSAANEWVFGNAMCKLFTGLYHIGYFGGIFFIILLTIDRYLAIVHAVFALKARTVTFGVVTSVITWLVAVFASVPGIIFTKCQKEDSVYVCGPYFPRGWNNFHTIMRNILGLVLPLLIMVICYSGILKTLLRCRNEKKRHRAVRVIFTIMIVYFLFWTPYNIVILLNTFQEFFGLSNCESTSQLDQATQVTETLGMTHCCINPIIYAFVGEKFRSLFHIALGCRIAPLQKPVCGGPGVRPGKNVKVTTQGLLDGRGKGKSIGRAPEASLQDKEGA

| EC50 [2] [nM] | EC50 [3] [nM] | Substance | EC50 [1] [nM] |
| --- | --- | --- | --- |
| – | – | CCL2: endogenous chemokine ligand, CCR2 agonist | 7.43 |
| 1.01 | 2.93 | CCL5: endogenous chemokine ligand, CCR1 agonist | – |
